The target in the assay is T1, K(FEFK)2K.
T1 construct: designed amphipathic self-assembling peptide, L-amino acids; printed in short form K(FEFK)2K and written out here; forms beta-sheet-rich fibres and a hydrogel at pH 7; also called base peptide; peptide 1; source: synthetic peptide; bought: LifeTein Inc. (HCl salt, nominal purity 95%)
T1 peptide: KFEFKFEFKK
Nature of the assay: FRET or BRET; FITC/Dabcyl quenching in mixed hydrogels: base peptide 3.75 mg mL^-1 plus secondary peptide, total 7.5 mg mL^-1 (mass ratio 1:1), pH 7, water; powders mixed before dissolving, pH raised stepwise with NaOH; quenching percentage compared with base hydrogels at 3.75 and 7.5 mg mL^-1. (Bioluminescence resonance energy transfer reports proximity on the nanometre scale.)

In the case of K(FEFK)2K (peptide), the fluorescence quenching percentage stood at 30%.

B1: (FEFK)2K (peptide)
peptide: FEFKFEFKK
notes: designed amphipathic peptide; printed in short form (FEFK)2K and written out here; source: synthetic peptide; bought: LifeTein Inc. (HCl salt, nominal purity 95%)
For B1, the binding result (both partners purified) is “binds”.

For the origin of these results see PMC12236388, “Investigating the co-assembly of amphipathic peptides” (Faraday Discussions, 2025).
